Positions count from the first letter of the chain named.
How the values were obtained:
[1] = target: T1, full length human ACVR1 (R206H) on HEK293/BRE-luc/hACVR1-R206H-clone H2 cells (human, UniProt Q04771 21-509); test: flow cytometry, 66.6 nM antibody, HEK293/hACVR1-R206H cells
T1 construct: also called HEK293/hACVR1-R206H
T1 sequence: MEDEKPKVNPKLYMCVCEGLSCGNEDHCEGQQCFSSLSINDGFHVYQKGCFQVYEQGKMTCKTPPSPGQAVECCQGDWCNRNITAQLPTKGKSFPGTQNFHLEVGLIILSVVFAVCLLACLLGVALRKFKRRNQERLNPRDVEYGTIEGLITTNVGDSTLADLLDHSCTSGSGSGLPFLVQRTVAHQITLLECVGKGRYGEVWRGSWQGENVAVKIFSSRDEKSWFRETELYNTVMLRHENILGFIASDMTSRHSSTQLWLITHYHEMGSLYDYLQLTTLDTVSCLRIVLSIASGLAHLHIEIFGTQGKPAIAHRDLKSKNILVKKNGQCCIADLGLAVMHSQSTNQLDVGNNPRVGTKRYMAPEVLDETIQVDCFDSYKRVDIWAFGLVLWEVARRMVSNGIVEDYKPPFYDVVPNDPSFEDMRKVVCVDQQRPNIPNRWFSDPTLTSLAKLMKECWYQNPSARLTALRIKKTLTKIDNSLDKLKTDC
Procedure: (§1) Cells were fixed using BD CytoFix™ (Becton Dickinson, #554655) and analyzed on either Hypercyt® or IQue® Flow Cytometers (Intellicyt®). Unstained and secondary antibody alone controls were also tested for all cell lines. The results were analyzed using ForeCyt® (IntelliCyt®) software to determine the geometric means of fluorescence for viable cells and binding ratios were calculated by normalizing the geometric mean value of the test condition by the geometric mean value of the corresponding unstained cells.

[2] = target: T2, full length wild type human ACVR1 on HEK293/BRE-luc/hACVR1-wild type cells (human, UniProt Q04771 21-509); test: flow cytometry, 66.6 nM antibody, HEK293/hACVR1-wt cells
T2 construct: also called HEK293/hACVR1-wt; hACVR1-wt
T2 sequence: T1 sequence with H186R
Procedure: as §1

[3] = target: T3, human ACVR1 extracellular domain expressed with a C-terminal myc-myc-hexahistidine tag (human); test: SPR (Biacore), mAb captured, 25 C
T3 construct: also called hACVR1-MMH
T3 chain: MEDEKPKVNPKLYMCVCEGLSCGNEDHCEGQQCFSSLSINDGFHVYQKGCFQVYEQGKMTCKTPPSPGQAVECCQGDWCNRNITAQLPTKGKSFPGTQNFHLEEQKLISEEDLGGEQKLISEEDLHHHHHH
Method in brief: (§2)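 First, a CM5 chip is derivatized with mouse anti-human Fc antibody to capture the test mAbs. Next, ACVR1 reagents are injected at 30 μL/minute for 2.5-3 minutes, then dissociation is followed 10-15 minutes in pH 7.4 HBS-ET. Finally, 1:1 fitting yields ka and kd.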

[4] = target: T4, human ACVR1 extracellular domain expressed with a C-terminal mouse IgG2a Fc tag (human); test: SPR (Biacore), mAb captured, 25 C
T4 construct: also called hACVR1-mFc
T4 chain: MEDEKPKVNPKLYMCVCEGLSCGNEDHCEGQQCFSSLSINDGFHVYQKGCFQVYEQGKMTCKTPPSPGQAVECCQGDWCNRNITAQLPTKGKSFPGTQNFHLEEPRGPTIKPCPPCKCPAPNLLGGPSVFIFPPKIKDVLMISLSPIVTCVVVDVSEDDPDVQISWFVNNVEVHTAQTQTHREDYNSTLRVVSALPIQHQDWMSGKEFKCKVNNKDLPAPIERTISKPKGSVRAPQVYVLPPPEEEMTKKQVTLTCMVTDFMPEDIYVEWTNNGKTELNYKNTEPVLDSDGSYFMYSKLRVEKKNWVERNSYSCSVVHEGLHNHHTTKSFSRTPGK
Method in brief: as §2

[5] = target: T5, mouse ACVR1 extracellular domain expressed with a C-terminal myc-myc-hexahistidine tag (mouse); test: SPR (Biacore), mAb captured, 25 C
T5 construct: also called mACVR1-MMH; mACVR1-mmh
T5 chain: T3 chain with M1V, P10Q
Method in brief: as §2

[6] = target: T1, full length human ACVR1 (R206H) on …; test: cell-based or functional assay
[7] = target: T3, human ACVR1 extracellular domain …; test: SPR (Biacore), mAb captured, 37 C
Method in brief: as §2

[8] = target: T4, human ACVR1 extracellular domain …; test: SPR (Biacore), mAb captured, 37 C
Method in brief: (§3)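 HBS-ET running buffer (10 mM HEPES, 150 mM NaCl, 3 mM EDTA, 0.05% Tween-20, pH 7.4). 1:1 fit gives ka, kd; KD, t½ derived.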

[9] = target: T5, mouse ACVR1 extracellular domain …; test: SPR (Biacore), mAb captured, 37 C
Method in brief: as §3

MFI - Normalized to Unstained Control [1]: 235 fold
MFI - Normalized to Unstained Control [2]: 183 fold
900 nM or 100 nM Ag Bound (RU) [3]: 44 RU
Kd [3]: 1020 nM
koff [3]: 0.42 s⁻¹
kon [3]: 413000 M⁻¹ s⁻¹
t½ [3]: 1.8 s
100 nM Ag Bound (RU) [4]: 268 RU
Kd [4]: 12.3 nM
koff [4]: 0.00802 s⁻¹
kon [4]: 652000 M⁻¹ s⁻¹
t½ [4]: 84 s
900 nM or 100 nM Ag Bound (RU) [5]: 41 RU
Kd [5]: 836 nM
koff [5]: 0.575 s⁻¹
kon [5]: 688000 M⁻¹ s⁻¹
t½ [5]: 1.2 s
IC50 [M], BRE-luc reporter, 3 nM hActivin A [6]: 1.9e-08 M
IC50 [M], BRE-luc reporter, 3 nM hBMP7 [6]: 1.6e-08 M
900 nM or 100 nM Ag Bound (RU) [7]: 25 RU
100 nM Ag Bound (RU) [8]: 243 RU
Kd [8]: 79.2 nM
koff [8]: 0.0577 s⁻¹
kon [8]: 729000 M⁻¹ s⁻¹
t½ [8]: 12 s
900 nM or 100 nM Ag Bound (RU) [9]: 23 RU
B1: mAb22125 (antibody, human IgG4 S228P, kappa, V domains shown)
VH: QVQLVQSGAEVKKPGASVKVSCKASGYTFTGYYMHWVRQAPGQGLEWMGWINPNSVGTNFAQKFQGRVTMTRDTSISTAYMELSRLRSDDTAVYYCTRDGAAAGLFDYWGQGTLVTVSS
VL: DIQMTQSPSSLSASVGDRVTITCRASQGINNYLAWYQQKPGKVPKLLIYAASTLQSGVPSRFSGSGSGTDFTLTISSLQPEDVATYYCQKFNSAPLTFGGGTKVEIKR

From patent publication US20210253716A1 (Regeneron, published 2021)
